The labels stand for the following.
B1: LV1178 (VHH)
VHH: EVQLVESGGALVQAGGSLRLSCSVSGLTASRLTMGWFRQAPGKEREFVARVYASGGLTDYADSVKGRFTISRDNAKNTVYLQMNSLEPEDTAVYYCVAGLWADMRTMTSTRGYWGQGTQVTVSS
notes: Llama-derived anti-Nectin-4 VHH from phage display
B2: LV1183 (VHH)
VHH: EVQLVESGGGLVQAGGSLRLSCAASGSIFDINLMGWYRQAPGKLRELVASITRGGSTWYVDSVKGRFIISRDSAKNTVYLQMNSLKPGDTAVYYCAAESIGSYTFDRWGQGTQVTVSS
notes: Llama-derived anti-Nectin-4 VHH
B3: LV1181 (VHH)
VHH: EVQLVESGGGLVQAGGSLRLSCAASGSISSINLMGWHRQAPGKQRELVATITRGGSTNYADSVKGRFTISRDNGKNTVYLQMNSLKPEDTAAYYCVDVEPSGMGWRDYWGQGTQVTVSS
notes: as for B2
B4: LV1184 (VHH)
VHH: EVQLVESGGGLVQAGGSLRLSCAASGSISSINLMGWFRQAPAKQRELVTSISPGGSVRYADSVKGRFTISRDVAKNTVDLQMNSLKPEDTAVYYCAAESERTYYFDSWGQGTQVTVSS
notes: as for B2
B5: LV1185 (VHH)
VHH: EVQLVESGGGLVQAGGSLRLSCAASRSTFSLNIMGWYRQAPGKQREYVATITTGGSTNYADSVRGRFTISRDNAEDTVYLQMNSLKPEDTAVYYCTAELVRRGPTTYWGRGTQVTVSS
notes: as for B2
B6: LV1186 (VHH)
VHH: B5 VHH with T53S, D76N, N83D
notes: as for B2
B7: LV1187 (VHH)
VHH: EVQLVESGGGLVQAGGFLRLSCAASRSVFRINVMGWYRQAPGKQRELVAGITSGGSRRLADSVKGRFTISRDNAKNTVYLQMNSLKPEDTAVYYCFAEAVVGDEPYWGQGTQVTVSS
notes: as for B2
B8: LV1184xVδ2 (bispecific antibody)
chain: EVQLVESGGGLVQAGGSLRLSCAASGSISSINLMGWFRQAPAKQRELVTSISPGGSVRYADSVKGRFTISRDVAKNTVDLQMNSLKPEDTAVYYCAAESERTYYFDSWGQGTQVTVSSGGGGSEVQLVESGGGLVQAGGSLRLSCAASGRPFSNYAMGWFRQAPGKEREFVAAISWSGGSTSYADSVKGRFTISRDNAKNTVYLQMNSPKPEDTAIYYCAAQFSGADYGFGRLGIRGYEYDYWGQGTQVTVSS
notes: Orientation N-term-anti-Nectin-4 VHH-linker-anti-Vδ2 VHH (5C8); no Fc; also called Nectin-4xVδ2 bispecific VHH
B9: LV1185xVδ2 (bispecific antibody)
chain: EVQLVESGGGLVQAGGSLRLSCAASRSTFSLNIMGWYRQAPGKQREYVATITTGGSTNYADSVRGRFTISRDNAEDTVYLQMNSLKPEDTAVYYCTAELVRRGPTTYWGRGTQVTVSSGGGGSEVQLVESGGGLVQAGGSLRLSCAASGRPFSNYAMGWFRQAPGKEREFVAAISWSGGSTSYADSVKGRFTISRDNAKNTVYLQMNSPKPEDTAIYYCAAQFSGADYGFGRLGIRGYEYDYWGQGTQVTVSS
notes: as for B8
B10: LV1186xVδ2 (bispecific antibody)
chain: B9 chain with T53S, D76N, N83D
notes: as for B8
B11: LV1181xVδ2 (bispecific antibody)
chain: EVQLVESGGGLVQAGGSLRLSCAASGSISSINLMGWHRQAPGKQRELVATITRGGSTNYADSVKGRFTISRDNGKNTVYLQMNSLKPEDTAAYYCVDVEPSGMGWRDYWGQGTQVTVSSGGGGSEVQLVESGGGLVQAGGSLRLSCAASGRPFSNYAMGWFRQAPGKEREFVAAISWSGGSTSYADSVKGRFTISRDNAKNTVYLQMNSPKPEDTAIYYCAAQFSGADYGFGRLGIRGYEYDYWGQGTQVTVSS
notes: as for B8

Where a chain is given by its changes, count along the chain named.

In one experiment the target is T1, mouse Nectin-4 (mouse, UniProt Q8R007 31-508).
T1 construct: whole, on cells; Transiently expressed on CHO-K1 cells; also called murine Nectin-4
T1 sequence (looked up): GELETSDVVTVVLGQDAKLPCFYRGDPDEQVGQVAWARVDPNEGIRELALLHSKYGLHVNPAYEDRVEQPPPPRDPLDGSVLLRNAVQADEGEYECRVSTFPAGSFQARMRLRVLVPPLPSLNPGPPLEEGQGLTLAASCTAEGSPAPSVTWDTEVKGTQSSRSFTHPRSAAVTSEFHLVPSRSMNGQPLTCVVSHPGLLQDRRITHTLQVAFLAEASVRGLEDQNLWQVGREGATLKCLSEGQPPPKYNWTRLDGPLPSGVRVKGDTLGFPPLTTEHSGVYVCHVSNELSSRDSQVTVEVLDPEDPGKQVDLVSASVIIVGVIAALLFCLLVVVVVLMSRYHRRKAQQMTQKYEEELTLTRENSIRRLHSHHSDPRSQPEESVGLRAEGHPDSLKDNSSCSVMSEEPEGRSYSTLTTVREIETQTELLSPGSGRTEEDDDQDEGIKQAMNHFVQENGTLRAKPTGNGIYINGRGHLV
Briefly: cell-based ELISA on transfected CHO-K1 cells.
For B1, the binding result is recorded as “no binding (tested: 0.032 to 500 nM)”.

On to B2, for which the binding result is on record as “no binding (tested: 0.032 to 500 nM)”.

In a further experiment the target is T2, human Nectin-4 (on cells) (human, UniProt Q96NY8 32-510).
T2 construct: also called PVRL4; NECT4_HUMAN
T2 sequence: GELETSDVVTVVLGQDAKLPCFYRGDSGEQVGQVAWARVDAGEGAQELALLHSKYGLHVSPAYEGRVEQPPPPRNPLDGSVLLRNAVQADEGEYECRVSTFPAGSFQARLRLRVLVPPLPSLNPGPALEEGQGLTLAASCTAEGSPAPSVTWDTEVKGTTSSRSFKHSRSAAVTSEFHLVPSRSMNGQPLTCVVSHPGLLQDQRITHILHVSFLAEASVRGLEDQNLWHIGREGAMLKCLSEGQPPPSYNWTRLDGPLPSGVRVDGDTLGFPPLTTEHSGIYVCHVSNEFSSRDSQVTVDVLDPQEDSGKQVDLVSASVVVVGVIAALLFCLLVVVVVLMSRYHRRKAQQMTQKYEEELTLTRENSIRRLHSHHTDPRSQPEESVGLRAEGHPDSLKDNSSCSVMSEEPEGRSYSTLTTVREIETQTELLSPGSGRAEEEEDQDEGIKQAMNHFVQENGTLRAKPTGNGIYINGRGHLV
As to the kind of experiment: flow cytometry on A431 cells (endogenous Nectin-4).
The term EC50 denotes the concentration giving half of the maximal effect. B3 yielded an EC50 of 0.33 nM.

Turning to B4, a half-maximal effect (EC50) was put at 0.24 nM.

Another experiment concerns the target T2, human Nectin-4 (on cells). Briefly: flow cytometry on BeWo cells (endogenous Nectin-4). A general note: Flow cytometry measures light scatter and fluorescence of single cells or particles in a stream.
Take B3: the EC50 was 0.4 nM.

The molecule B4 came in with an EC50 of 0.3 nM.

Another experiment concerns the target T2, human Nectin-4 (on cells). Briefly: flow cytometry on HT-29 cells (endogenous Nectin-4).
In turn, B3 yielded an EC50 of 1.5 nM.

For B4, the EC50 was determined as 1.2 nM.

A further experiment concerns the target T1, mouse Nectin-4. As to the kind of experiment: cell-based ELISA on CHO-K1 cells expressing mouse Nectin-4. On the technique in general: ELISA stands for enzyme-linked immunosorbent assay.
As to B5, the binding result is “binds”.

In the case of B6, the binding result is “binds”.

Take B3: the binding result is on record as “binds”.

With B4, the binding result was “binds”.

For the molecule B7, the binding result is on record as “binds”.

A further experiment has as its target T3, recombinant purified human Nectin-4-Fc fusion protein (human, UniProt Q96NY8 32-349).
T3 construct: Bought ('Aero Biosystems' as printed); not shown: Fc part of the bought fusion protein; captured by anti-human IgG Fc sensors
T3 sequence: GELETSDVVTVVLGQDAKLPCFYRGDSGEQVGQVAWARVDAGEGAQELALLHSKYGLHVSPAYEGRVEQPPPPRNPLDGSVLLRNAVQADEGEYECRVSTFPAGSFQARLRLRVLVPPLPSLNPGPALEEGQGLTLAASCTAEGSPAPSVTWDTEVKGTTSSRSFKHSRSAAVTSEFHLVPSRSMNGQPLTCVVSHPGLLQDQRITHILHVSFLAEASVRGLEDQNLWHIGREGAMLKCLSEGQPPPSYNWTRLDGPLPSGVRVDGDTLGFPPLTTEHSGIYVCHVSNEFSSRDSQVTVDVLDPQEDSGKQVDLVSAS
Briefly: BLI (Octet), Nectin-4-Fc on anti-human Fc sensors, run 1. For orientation: In BLI a coated tip is dipped into the sample, and binding shifts an interference pattern.
What is called Kd is the free concentration of one partner at which half of the binding sites on the other are occupied at equilibrium, for simple one-to-one binding. For the molecule B5, the Kd came out at 3.61 nM.

In the case of B6, the Kd is 3.93 nM.

Turning to B3, the Kd is 0.8 nM.

For B4, the Kd is 0.51 nM.

Consider B2, for which the Kd came to 5.7 nM.

On to B7, for which the Kd came to 5.2 nM.

The target of another experiment is T3, recombinant purified human Nectin-4-Fc …. As to the kind of experiment: BLI (Octet), Nectin-4-Fc on anti-human Fc sensors, run 2.
On to B5, for which the Kd stood at 2.34 nM.

Turning to B6, the Kd was found to be 3.94 nM.

Take B3: the Kd worked out at 0.76 nM.

Take B4: the Kd is 0.51 nM.

B1: the Kd came out at 8.02 nM.

As to B2, the Kd was determined as 7.98 nM.

In the case of B7, the dissociation constant (Kd) amounted to 6.09 nM.

The target is the same in a further experiment. As to the kind of experiment: BLI (Octet), Nectin-4-Fc on anti-human Fc sensors, run 1. The source holds these as a separate data set.
One may read the koff as the first-order rate constant of dissociation. The kon is the second-order rate constant of association. Regarding B8, the Kd is 0.07 nM, the koff is 6.33e-05 s⁻¹ and the kon was 973000 M⁻¹ s⁻¹.

Turning to B9, the Kd came out at 2 nM, the koff was 0.00127 s⁻¹ and the kon was 642000 M⁻¹ s⁻¹.

In the case of B10, the Kd amounted to 2.3 nM, the koff was 0.00165 s⁻¹ and the kon amounted to 731000 M⁻¹ s⁻¹.

For the molecule B11, the Kd is 0.26 nM, the koff worked out at 0.000266 s⁻¹ and the kon stood at 1.04e+06 M⁻¹ s⁻¹.

The target is the same in the next experiment. Briefly: BLI (Octet), Nectin-4-Fc on anti-human Fc sensors, run 2. The source holds these as a separate data set.
In the case of B8, the Kd is 0.18 nM, the koff worked out at 0.000149 s⁻¹ and the kon was 844000 M⁻¹ s⁻¹.

Consider B9, for which the Kd is 2.4 nM, the koff was 0.00144 s⁻¹ and the kon worked out at 593000 M⁻¹ s⁻¹.

Consider B10, for which the Kd was 2.6 nM, the koff came to 0.0017 s⁻¹ and the kon was found to be 660000 M⁻¹ s⁻¹.

Turning to B11, the Kd worked out at 0.37 nM, the koff was 0.0003 s⁻¹ and the kon turned out to be 818000 M⁻¹ s⁻¹.

The target of the next experiment is T4, cynomolgus monkey Nectin-4 (cynomolgus monkey, UniProt A0A2K5WES1 32-510).
T4 construct: whole, on cells; Transiently expressed on CHO-K1 cells; also called cynomolgus Nectin-4
T4 sequence: T2 sequence with V39A, I230V, A437T
Briefly: cell-based ELISA on CHO-K1 cells expressing cynomolgus monkey Nectin-4.
Take B5: the binding result is on record as “binds”.

Take B6: the binding result was “binds”.

On to B3, for which the binding result was “binds”.

On to B4, for which the binding result is listed as “binds”.

Consider B1, for which the binding result was “binds”.

Take B2: the binding result is given as “binds”.

Consider B7, for which the binding result is “binds”.

The values above are taken from patent EP4438624A1 (LAVA Therapeutics N.V., dated 2024).
